Source: the supplement of paper PMC7877785
± gives the uncertainty stated by the source.

Assay: self-splicing fitness, log relative to wild type (ln ratio); higher = more splicing; Tetrahymena group I intron in knt gene, E. coli kanamycin selection, DiMSum; sequences stand for … in CUCUCU…GGAGGGAAAAGUUAUCAGGCAUGCACCUGGUAGCUAGUCUUUAAACCAAUAGAUUGCAUCGGUUUAAAAGGCAAGACCGUCAAAUUGCGGGAAAGGGGUCAACAGCCGUUCAGUACCAAGUCUCAGGGGAAACUUUGAGAUGGCCUUGCAAAGGGUAUGGUAAUAAGCUGACGGACAUGGUCCUAACCACGCAGCCAAGUCCUAAGUCAACAGAUCUUCUGUUGAUAUGGAUGCAGUUCACAGACUAAAUGUCGGUCGGGGAAGAUGUAUUCUUCUCAUAAGAUAUAGUCGGACCUCUCCUUAAUGGGAGCUAGCGGAUGAAGUGAUGCAACACUGGAGCCGCUGGGAACUAAUUUGUAUGCGAAAGUAUAUUGAUUAGUUUUGGAGUACUCGUGGUCG
Procedure, shortened: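 Six replicate transformations of E. coli BL21(DE3) with a pET-22b(+) library were grown overnight at 37°C or 30°C. The library randomised all eight P1ex-region intron nucleotides, the intron lying in the knt kanamycin-resistance gene, and plates were LB agar with or without 25 μg/mL kanamycin plus 100 μg/mL carbenicillin, 50 μM IPTG and 0.2% rhamnose. Pooled colonies were amplicon-sequenced on an Illumina HiSeq 2500, and fitness is the DiMSum error-weighted combination of wild-type-normalised replicate fold changes, kanamycin versus none.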

Sequence	self-splicing fitness (ln) (30 °C)	self-splicing fitness (ln) (37 °C)
AAGCAGCAAUAUUACGGGUG	-3.43 ± 0.13	-1.85 ± 0.1
CCGCAGCAAUAUUACGGCGA	-1.15 ± 0.084	-0.544 ± 0.085
UUACAGCAAUAUUACGAUGG	-1.16 ± 0.062	-0.0316 ± 0.086
AGGUAGCAAUAUUACGGUAC	-3.522 ± 0.032	-2.07 ± 0.04
UUGCAGCAAUAUUACGGCUC	-0.757 ± 0.094	-0.29 ± 0.14
UCAUAGCAAUAUUACGAGUU	-2.66 ± 0.34	-1.56 ± 0.36
AAGAAGCAAUAUUACGUACG	-0.925 ± 0.092	-0.719 ± 0.11
GACAAGCAAUAUUACGUUAU	-3.17 ± 0.11	-1.5 ± 0.095
CCCAAGCAAUAUUACGGGGG	-3.6 ± 0.13	-3 ± 0.19
AAGAAGCAAUAUUACGUUAC	-3.33 ± 0.17	-3.57 ± 0.25
UCGCAGCAAUAUUACGUGAG	-0.263 ± 0.042	-0.325 ± 0.063
AGUAAGCAAUAUUACGGUUC	-2.9 ± 0.19	-1.55 ± 0.44
AAACAGCAAUAUUACGUUCC	-2.55 ± 0.16	-1.13 ± 0.19
UCACAGCAAUAUUACGGCAU	-4.11 ± 0.22	-2.26 ± 0.14
GUCGAGCAAUAUUACGAGCC	-3.81 ± 0.47	–
CGCUAGCAAUAUUACGGACC	-2.14 ± 0.31	–
GUGAAGCAAUAUUACGCGUC	-2.19 ± 0.19	-0.692 ± 0.16
GUCCAGCAAUAUUACGGAGU	-0.181 ± 0.063	-0.404 ± 0.084
AGUUAGCAAUAUUACGCUCG	-0.0767 ± 0.16	-0.636 ± 0.19
ACAUAGCAAUAUUACGUACU	-0.24 ± 0.077	0.46 ± 0.12

Sequence	self-splicing fitness (ln) (30 °C)	self-splicing fitness (ln) (37 °C)
UACAAGCAAUAUUACGGCAU	-1.49 ± 0.068	-0.705 ± 0.072
UAAGAGCAAUAUUACGAAUG	-2.32 ± 0.17	-1.52 ± 0.25
GUUGAGCAAUAUUACGUCGU	-3.25 ± 0.39	–
CGCAAGCAAUAUUACGGUAG	-0.472 ± 0.053	-0.388 ± 0.06
CGCUAGCAAUAUUACGUACC	-1.89 ± 0.27	-0.55 ± 0.2
CACUAGCAAUAUUACGCGAC	-3.04 ± 0.18	-3.16 ± 0.3
AACGAGCAAUAUUACGUCGA	–	-2.06 ± 0.21
GGCCAGCAAUAUUACGUCAG	-1.91 ± 0.13	-2.98 ± 0.33
AUGUAGCAAUAUUACGCUCU	-1.95 ± 0.13	-0.655 ± 0.17
ACGGAGCAAUAUUACGCCGG	-1.09 ± 0.38	–
AAUUAGCAAUAUUACGACCU	0.197 ± 0.19	0.333 ± 0.21
UGUUAGCAAUAUUACGCCGG	-0.866 ± 0.13	-0.696 ± 0.19
CUCCAGCAAUAUUACGUGGU	-3.42 ± 0.12	-3.19 ± 0.15
CCACAGCAAUAUUACGGAAU	-3.23 ± 0.17	-2.21 ± 0.18
ACACAGCAAUAUUACGAAAG	-2.32 ± 0.074	-2.06 ± 0.11
GGGUAGCAAUAUUACGAAAC	-1.26 ± 0.32	-0.11 ± 0.4
CCACAGCAAUAUUACGACCA	-3.99 ± 0.36	-1.28 ± 0.2
UUAAAGCAAUAUUACGGGCU	-2.46 ± 0.11	-0.716 ± 0.1
AACAAGCAAUAUUACGAGAU	-3.08 ± 0.14	-1.62 ± 0.12
